Earlier results, collected in publication PMC6535718.
pKd: −log10 of the molar value.

Molecular target: Bfd (Pseudomonas aeruginosa) (UniProt Q9HY80)
Sequence (Q9HY80 whole entry): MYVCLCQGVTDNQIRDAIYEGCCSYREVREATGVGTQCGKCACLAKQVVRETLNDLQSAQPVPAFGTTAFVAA

BfrB, sequence (Q9HY79 whole entry): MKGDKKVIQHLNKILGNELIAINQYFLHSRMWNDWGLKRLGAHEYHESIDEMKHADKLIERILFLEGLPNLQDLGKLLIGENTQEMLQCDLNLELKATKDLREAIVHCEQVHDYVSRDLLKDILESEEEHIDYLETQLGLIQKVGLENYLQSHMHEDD

In the case of BfrB (from UniProt Q9HY79), the pKd is listed as 5.47.
